Laboratory results: PMC8751089, “Photobiocatalytic Oxyfunctionalization with High Reaction Rate using a Baeyer–Villiger Monooxygenase from Burkholderia xenovorans in Metabolically Engineered Cyanobacteria” (ACS Catalysis, 2021)

Key:
BVMOXeno = system: T1, BVMOXeno; experiment: steady-state kinetics, NADPH consumption; format: biochemical, Paraburkholderia xenovorans; conditions: co-substrates NADPH and O2; 50 mM Tris-HCl, pH 8, 25 °C
T1 construct: gene BVMO_Xeno; purified enzyme, recombinant (E. coli); tag details only in supplement
From the text: steady-state kinetics, NADPH consumption on BVMOXeno

O=C1CCCCC1 = experiment: purified protein; conditions: co-substrates NADPH and O2, 50 mM Tris-HCl, pH 8, 25 °C

Compound	Km (BVMOXeno)	Km (O=C1CCCCC1)	kcat (O=C1CCCCC1)	kcat/Km (O=C1CCCCC1)
O=C1CCCCC1 [1a, cyclohexanone]	22.7 ± 5 µM	–	–	–
CHMOAcineto (Acinetobacter johnsonii)	–	266.6 ± 25.5 µM	4.54 ± 0.095 s⁻¹	17000 ± 1670 M⁻¹ s⁻¹
